This note sets out measurements from the RNAGym collection of RNA variant scans (doi:10.1093/molbev/msab373).

The chains are these.
B1: Azoarcus group I ribozyme (parent)
chain: GUGCCUUGCGCCGGGAAACCACGCAAGGGAUGGUGUCAAAUUCGGCGAAACCUAAGCGCCCGCCCGGGCGUAUGGCAACGCCGAGCCAAGCUUCGGCGCCUGCGCCGAUGAAGGUGUAGAGACUAGACGGCACCCACCUAAGGCAAACGCUAUGGUGAAGGCAUAGUCCAGGGAGUGGCGAAAGUCACACAAACCGG

The variants in this series derive from B1. As to the kind of experiment: reverse-splicing fitness (ratio to wild type); higher = more active; in vitro selection; Mg2+ level not given. The method, boiled down:
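An in vitro group I ribozyme library with randomized positions was T7-transcribed and gel-purified. In triplicate, 10 pmol RNA in EPPS pH 7.5 was reacted with 50 pmoles of a 30-nt RNA substrate for 1 h at 37 °C across several added MgCl2 levels (1–48 mM), then stopped with EDTA. Products were reverse transcribed from a substrate-complementary primer, PCR-amplified and sequenced (HiSeq 4000). Fitness is a variant's read proportion after selection over that before, normalised to wild type.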
Turning to A145C C150A C169A U176C, the reverse-splicing fitness is 0.00805.

For the variant C82A A120G C150U C169A, the reverse-splicing fitness stood at 0.0136. In the case of C82U A111G A120G A145U C150G C169A U176G, the reverse-splicing fitness is 0.00391.

As for C82G A111C A145G C150G, the reverse-splicing fitness came to 0.0266. As for C82A A120G A145C C169G, the figure is 0.0188; as for C82A A111U C150U, 0.135. As for A120G A145G C169G, the reverse-splicing fitness stood at 0.639. Turning to C82U A111G A145G C150G C169U U176A, the reverse-splicing fitness worked out at 0.0101. Under A111C A120C C150A C169U U176C stands 0.0224; under C82G A111C C169A U176G, 0.00611; under C82G A111C A120G C150A C169G U176C, 0.025.

As for C82G A111G A120G C169G U176A, the reverse-splicing fitness came out at 0.0194. For the variant C82G A111G A120G C150U C169G U176G, the reverse-splicing fitness amounted to 0.00549. As for C82A A111U A120U A145C C150U C169G U176G, the reverse-splicing fitness is 0.00248. As to C82U A111U A120U, the reverse-splicing fitness came to 0.0242.

As for C82G A111U A145C C169U U176G, the reverse-splicing fitness was 0.00474. Under A111G A120C C169U stands 0.271.

In the case of C82A A111G A120C A145U U176G, the reverse-splicing fitness was found to be 0.00629.

Consider C82U A120U A145C C150G C169G U176G, for which the reverse-splicing fitness turned out to be 0.00188. Take C82G A120G A145U C169U: the reverse-splicing fitness was found to be 0.0235. As for C82G A111U A120U A145U C150U C169G U176G, the figure is 0.00218; as for A120G A145U C150G C169U U176A, 0.0333. Take A111U A120C A145U C169A U176A: the reverse-splicing fitness is 0.00962. For C82G A111G A145C C150U C169A, the reverse-splicing fitness was 0.00783.

Consider C82G A111U A145U C150U C169A U176C, for which the reverse-splicing fitness stood at 0.0125. For the variant A111C A145C C150A C169A U176A, the reverse-splicing fitness stood at 0.0117. As for C82A A111G A145U C150A C169G U176A, the figure is 0.0174; as for A120G A145U C150G U176C, 0.0502; as for A111C C150A C169A, 0.0113. Take C82U A120U A145C C150A U176C: the reverse-splicing fitness came to 0.00532.

Consider C82A A111G A120U A145G C150G C169G U176A, for which the reverse-splicing fitness was found to be 0.00925. As for C82G A111G A120G A145C C150A U176A, the figure is 0.0127; as for C82U A111C A145U C150A C169A U176C, 0.0128. Under C82U A120U A145C C150A C169U stands 0.00232; under C82U A111U A120U A145G C150A C169U, 0.00374. In the case of A111G A120G A145U C150G C169G U176A, the reverse-splicing fitness was 0.00768. As for A111C A120G A145C C169A U176C, the figure is 0.0169. Under C82U A111G A120U A145G C150U C169U U176A stands 0.00391; under C82U A111U A120U A145C C150A C169G U176A, 0.00269; under C82A A111U A120C A145G C169G U176A, 0.0259.

With C82U A111U A120U A145C C150U C169G, the reverse-splicing fitness was determined as 0.00276. Under C82G A111U A120G A145U C169G U176C stands 0.0162. Take A120U A145G C150U C169G U176G: the reverse-splicing fitness is 0.00281.

Regarding C82G A111G A145G C150A C169U, the reverse-splicing fitness was found to be 0.0105.

Take C82U A120C A145G U176A: the reverse-splicing fitness amounted to 0.0488.

Turning to C82A A111G A145U C169U U176C, the reverse-splicing fitness stood at 0.0133. As for C82U A111U A120G A145C C150G U176A, the figure is 0.00493; as for C82U A120G A145G C150G C169A U176G, 0.00685; as for C82G A111U A120U C150A U176C, 0.00858. Under C82U A111G A120G C150G C169A U176C stands 0.0101. Under A111C A120U A145G C150G U176A stands 0.0151.

For the variant C82U A111G A120G A145U C169A U176G, the reverse-splicing fitness came out at 0.00425. As for C82U A120G C150A U176A, the figure is 0.0116. Under A120C C169A stands 0.0364; under C82A A111G A145C U176G, 0.0484.

Regarding C82G A111G A145U C150A C169A, the reverse-splicing fitness came to 0.00827.

On to C82G A111C A120U A145U C150G U176C, for which the reverse-splicing fitness was 0.0062.

Turning to C82U A111U A120C A145U C150U C169G U176G, the reverse-splicing fitness amounted to 0.00554. Under C82A A111U A120G A145U stands 0.0153; under C82A A111C A120G A145C U176G, 0.00486. Under C82G A111U A120C C169A stands 0.00833; under C82G A111U A120C, 0.0483. In the case of A111G A145C C169G U176G, the reverse-splicing fitness came to 0.00491.

In the case of C82U A111G A120G C150U C169U U176C, the reverse-splicing fitness is 0.015. Under A111C A120U A145G C169A U176C stands 0.00408; under C82A A111U A120U A145C C150A C169U, 0.00267.

Regarding A111U A120C A145U C150G C169A, the reverse-splicing fitness was 0.00829. Under C82G A111U A120G C150U C169U U176C stands 0.0168. As to C82U A111C A145G C150A C169U U176G, the reverse-splicing fitness worked out at 0.00739.

Regarding C82G A111U A120U A145C C169U, the reverse-splicing fitness came to 0.00386. Under C82G A111U A120U A145C C169G stands 0.00383. Regarding C82U A111C A120C A145U C169A U176C, the reverse-splicing fitness turned out to be 0.0103.

For A120G A145G C150G C169A U176C, the reverse-splicing fitness is 0.0319. Take A111G A120C A145C C150G C169U U176G: the reverse-splicing fitness came out at 0.0038. As for C82U A111C A120C C169G, the figure is 0.00813. Under C82G A111C A120C A145C C150A U176C stands 0.0115.

As to C82G A111G A120U A145C C150A C169U U176A, the reverse-splicing fitness was 0.00266. In the case of C82G A111C A120C A145C C150A C169G, the reverse-splicing fitness was found to be 0.00859. As for C82G A111U A120C A145U C150A C169G U176G, the figure is 0.00638; as for C82U A145C C150A C169U U176A, 0.0103.

As to C82U A111U C150U C169U U176A, the reverse-splicing fitness turned out to be 0.0149. With A111U A120G A145C C150G C169U U176G, the reverse-splicing fitness was 0.00521.

On to C82A A111G A145U C150G C169A U176G, for which the reverse-splicing fitness turned out to be 0.00684. As for C82U A111G A120G A145U C150U C169G U176A, the figure is 0.0116.
